Data from patent US20230220458.

Test system: HhaI restriction endonuclease
Assay: cleavage_in_vitro
Conditions: 37 C 2 h

CGGATAGCGCGGCGGGCGACAGCCCCCCGGATAACCCCGCCGAGGGAGGGGCGCTTGTAAAACCGAGCGGCG [lung cancer test locus, synthetic ssDNA oligonucleotide]
activity (cycles (deltaCq test vs control locus)) (100% ssDNA, digestion impaired): 7.51

CGGATAGCGCGGCGGGCGACAGCCCCCCGGATAACCCCGCCGAGGGAGGGGCGCTTGTAAAACCGAGCGGCG (double strand) [lung cancer test locus, unmethylated genomic dsDNA (A-673)]
activity (cycles (deltaCq test vs control locus)) (100% dsDNA, no visible amplification of test locus after digestion): > 18
